Here are results for six molecules from patent US20180030151A1 (MOGAM INSTITUTE FOR BIOMEDICAL RESEARCH, published 2018).

Assay in all cases: cell-based or functional assay
For assay [1], the target named is T1, recombinant human TFPI (tissue factor pathway inhibitor) (human, UniProt P10646 29-304).
The target of assay [2] is T1, recombinant human TFPI (tissue factor …). The source holds these as a separate data set.
The target is the same in assay [3]. This is another data set of the same source.
Assay [4] shares this target. This is another data set of the same source.

Where two headings read alike, the source gives them in different places.

B1: clone 1216 (antibody, V domains shown)
VH: EVQLVESGGGLVKPGGSLRLSCAASGFTFSHYAMNWVRQAPGKGLEWVSTITTGGSYTYYADSVEGRFTISRDNAKNSLYLQMNSLRAEDTAVYYCARQDGHFLMDYWGQGTLVTVSS
VL: DVVMTQTPLSLPVTLGQPASISCKSSQSLLDIDGKTYLNWLQQRPGQSPKRLIYLVSKLDSGVPDRFTGSGSGTDFTLKISRVEAEDVGVYYCWQGTHLPFTFGQGTKVEIKR
On to B1, for which, in assay [1], the “FXa assay % of FXa alone, 2.5 nM Ab, 10 nM TFPI” value was 3.6%; the “FXa assay % of FXa alone, 5 nM Ab, 10 nM TFPI” value was 4%; the “FXa assay % of FXa alone, 10 nM Ab, 10 nM TFPI” value was 3.6%; the “FXa assay % of FXa alone, 20 nM Ab, 10 nM TFPI” value came out at 3.3%.

B2: clone 1238 (antibody, V domains shown)
VH: EVQLVESGGGLVKPGGSLRLSCAASGFTFSSYAMNWVRQAPGKGLEWVSTITTGGSYTYYADSVEGRFTISRDNAKNSLYLQMNSLRAEDTAVYYCARQDGHFLMDYWGQGTLVTVSS
VL: DVVMTQTPLSLPVTLGQPASISCKSSQSLLDVDGKTYLNWLQQRPGQSPKRLIYLVSKLDSGVPDRFTGSGSGTDFTLKISRVEAEDVGVYYCWQGTHFPFTFGQGTKVEIKR
Turning to B2, in assay [1], the “FXa assay % of FXa alone, 2.5 nM Ab, 10 nM TFPI” value amounted to 4.5%; the “FXa assay % of FXa alone, 5 nM Ab, 10 nM TFPI” value came to 13.2%; the “FXa assay % of FXa alone, 10 nM Ab, 10 nM TFPI” value stood at 5.6%; the “FXa assay % of FXa alone, 20 nM Ab, 10 nM TFPI” value worked out at 63.2%. In addition, in assay [1], the “FXa assay OD, 2.5 nM Ab, 10 nM TFPI” value came to 0.039; the “FXa assay OD, 5 nM Ab, 10 nM TFPI” value worked out at 0.115; the “FXa assay OD, 10 nM Ab, 10 nM TFPI” value came out at 0.0485; the “FXa assay OD, 20 nM Ab, 10 nM TFPI” value was 0.55.

B3: clone 4208 (antibody, V domains shown)
VH: EVQLVESGGGLVKSGGSLRLSCAASGFTFSSYAMSWVRQAPGKGLEWVGTITTGGSYTYYADSVQGRFTISRDNAKNSLYLQMNSLRAEDTAVYYCARQDGNFLMDYWGQGTLVTVSS
VL: DVVMTQTPLSLPVTLGQPASISCKSSQSLLDTDGKTYLNWLQQRPGQSPKRLIYLVSKLDSGVPDRFTGSGSGTDFTLKISRVEAEDVGVYYCWQGTHFPFTFGQGTKVEIKR
For B3, in assay [2], the “FXa assay % of FXa alone, 2.5 nM Ab, 10 nM TFPI” value is 5%; the “FXa assay % of FXa alone, 5 nM Ab, 10 nM TFPI” value came to 6.1%; the “FXa assay % of FXa alone, 10 nM Ab, 10 nM TFPI” value amounted to 12.2%; the “FXa assay % of FXa alone, 20 nM Ab, 10 nM TFPI” value came out at 53.1%. Moreover, in assay [2], the “FXa assay OD, 2.5 nM Ab, 10 nM TFPI” value came to 0.041; the “FXa assay OD, 10 nM Ab, 10 nM TFPI” value was determined as 0.099; the “FXa assay OD, 20 nM Ab, 10 nM TFPI” value is 0.431.

B4: clone 1104 (antibody, V domains shown)
VH: EVQLVESGGGLVKPGGSLRLSCAASGFTFSSYAMNWVRQAPGKGLEWVGTITTGGSHTYYADSVQGRFTISRDNAKNSLYLQMNSLRAEDTAVYYCARQDGNFLMDYWGQGTLVTVSS
VL: DVVMTQTPLSLPVTLGQPASISCKSSQSLLDVDGKTYLNWLQQRPGQSPKRLIYLVSKLDSGVPDRFTGSGSGTDFTLKISRVEAEDVGVYYCWQGTHFPFTFGQGTKVEIKR
As to B4, in assay [3], the “FXa assay % of FXa alone, 2.5 nM Ab, 10 nM TFPI” value came to 8.5%; the “FXa assay % of FXa alone, 5 nM Ab, 10 nM TFPI” value was 28.3%; the “FXa assay % of FXa alone, 10 nM Ab, 10 nM TFPI” value came to 60%; the “FXa assay % of FXa alone, 20 nM Ab, 10 nM TFPI” value was determined as 69.2%. In addition, in assay [3], the “FXa assay OD, 2.5 nM Ab, 10 nM TFPI” value was 0.041; the “FXa assay OD, 5 nM Ab, 10 nM TFPI” value was determined as 0.137; the “FXa assay OD, 10 nM Ab, 10 nM TFPI” value was 0.29; the “FXa assay OD, 20 nM Ab, 10 nM TFPI” value was 0.335.

B5: clone 10 (antibody, V domains shown)
VH: EVQLVESGGGLVKPGGSLRLSCAASGFTFSSYAMNWVRQAPGKGLEWVSTITTGGSYTYYADSVQGRFTISRDNAKNSLYLQMNSLRAEDTAVYYCARQDGNFLMDYWGQGTLVTVSS
VL: DVVMTQTPLSLPVTLGQPASISCKSSPSLLDVDGKTYLNWLQQRPGQSPKRLIYLVSKLDSGVPDRFTGSGSGTDFTLKISRVEAEDVGVYYCWQGTHFPFTFGQGTKVEIKR
B5: in assay [4], the “FXa assay % of FXa alone, 2.5 nM Ab, 10 nM TFPI” value was found to be 9.6%; the “FXa assay % of FXa alone, 5 nM Ab, 10 nM TFPI” value is 5.1%; the “FXa assay % of FXa alone, 10 nM Ab, 10 nM TFPI” value turned out to be 11.8%; the “FXa assay % of FXa alone, 20 nM Ab, 10 nM TFPI” value came to 38.4%. Moreover, in assay [4], the “FXa assay OD, 2.5 nM Ab, 10 nM TFPI” value turned out to be 0.073; the “FXa assay OD, 5 nM Ab, 10 nM TFPI” value was found to be 0.0385; the “FXa assay OD, 10 nM Ab, 10 nM TFPI” value came to 0.09; the “FXa assay OD, 20 nM Ab, 10 nM TFPI” value amounted to 0.292.

B6: clone 1001 (antibody, V domains shown)
VH: EVQLVESGGGLVKPGGSLRLSCAASGFTFSSYAMNWVRQAPGKGLEWVSTITTGGSYTYYADSVDGRFTISRDNAKNSLYLQMNSLRAEDTAVYYCARQDGNFLMDYWGQGTLVTVSS
VL: DVVMTQTPLSLPVTLGQPASISCKSSQSLLDIDGKTYLNWLQQRPGQSPKRLIYLVSKLDSGVPDRFTGSGSGTDFTLKISRVEAEDVGVYYCWQGTHFPFTFGQGTKVEIKR
For the molecule B6, in assay [3], the “FXa assay % of FXa alone, 2.5 nM Ab, 10 nM TFPI” value was 6.4%; the “FXa assay % of FXa alone, 5 nM Ab, 10 nM TFPI” value was 10.3%; the “FXa assay % of FXa alone, 10 nM Ab, 10 nM TFPI” value is 66.9%; the “FXa assay % of FXa alone, 20 nM Ab, 10 nM TFPI” value was 73.9%. Also, in assay [3], the “FXa assay OD, 2.5 nM Ab, 10 nM TFPI” value is 0.031; the “FXa assay OD, 5 nM Ab, 10 nM TFPI” value came out at 0.05; the “FXa assay OD, 10 nM Ab, 10 nM TFPI” value is 0.324; the “FXa assay OD, 20 nM Ab, 10 nM TFPI” value came out at 0.357.
